Test results: FireProtDB

B1: Alpha-lactalbumin, P00712 (parent)
chain: MMSFVSLLLVGILFHATQAEQLTKCEVFQKLKDLKDYGGVSLPEWVCTAFHTSGYDTQAIVQNNDSTEYGLFQINNKIWCKDDQNPHSRNICNISCDKFLDDDLTDDIVCAKKILDKVGINYWLAHKALCSEKLDQWLCEKL

Variants of: B1
Conditions: Capra hircus; pH 7; 25 °C; GdnHCl; CD; sodium cacodylate 50 mM; NaCl 50 mM; reversible: yes; structure 1HFY; whole UniProt chain shown

Variant	ddG of mutation (higher = less stable) [kcal/mol]	denaturant m value [kcal/mol/M]	denaturant midpoint (higher = more stable) [M]	unfolding free energy [kcal/mol]
T48I	-4.4	2.6	3.93	10.1
T52I	1.1	2	2.31	4.6
A49I	-2.4	2.7	3.01	8.1
A49T	-1.7	3.1	2.44	7.4
A49I T52I	-0.4	2.1	2.85	6.1
